Biological target: cyno EpCAM (cyno)
Test: assay not stated; drawn table, heading 'Binding Affinity (nM)', column 'Cyno'

cyno EpCAM (cyno), sequence (Q1WER1 24-265): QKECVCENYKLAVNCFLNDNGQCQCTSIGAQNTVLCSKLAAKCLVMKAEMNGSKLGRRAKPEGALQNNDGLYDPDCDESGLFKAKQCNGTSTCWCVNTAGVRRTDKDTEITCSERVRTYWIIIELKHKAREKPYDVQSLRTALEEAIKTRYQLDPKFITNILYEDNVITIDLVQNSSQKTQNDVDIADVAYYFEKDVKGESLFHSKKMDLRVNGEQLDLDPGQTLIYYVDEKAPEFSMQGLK

B1: hVIB-23 (VHH)
VHH: QVQLVESGGGLVQPGGSLTLSCVISGSFSALWAMRWYRQAPGQQRELVASSRGGTTSYADSVKGRFTISRDNSKNTLYLQMNSLRPEDTAVYYCNAIDGHLAYWGQGTLVTVSS
Question: For B1, which Kd is on record?
Answer: 51.8 nM

From US20240199739A1 (Takeda / Millennium, published 2024)
